Laboratory results from paper PMC3948214 (Biochemistry, 2013).

Assays:
[1] = target: HpFabZ (Helicobacter pylori) (UniProt B5Z920); assay: SPR; conditions: cited from earlier work
crystal structure = target: the molecule itself; assay: crystal structure

Chain of HpFabZ (Helicobacter pylori) (B5Z920 whole entry): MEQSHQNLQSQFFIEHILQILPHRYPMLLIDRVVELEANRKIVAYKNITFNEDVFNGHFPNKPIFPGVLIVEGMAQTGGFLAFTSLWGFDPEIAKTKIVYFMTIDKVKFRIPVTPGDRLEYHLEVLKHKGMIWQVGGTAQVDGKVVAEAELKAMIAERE
Chain of HpACP (B5Z6T1 whole entry): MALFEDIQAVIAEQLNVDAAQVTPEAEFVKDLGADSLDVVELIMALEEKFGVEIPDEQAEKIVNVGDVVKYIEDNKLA

Molecule | Kd [1] [µM] | binding result (crystal structure)
HpACP (from UniProt B5Z6T1) | 0.01 | 
RifDH10, the dehydratase domain from the terminal module (module 10) of the rifamycin polyketide synthase (domain or fragment, Amycolatopsis mediterranei, UniProt O54593 2569-2872, looked up) ADTASDAVSLGLAGADHPLLGAVVQLPQSDGLVFTSRLSLRSHPWLADHAVRDVVIVPGTGLVELAVRAGDEAGCPVLDELVIEAPLVVPRRGGVRVQVALGGPADDGSRTVDVFSLREDADSWLRHATGVLVPENRPRGTAAFDFAAWPPPEAKPVDLTGAYDVLADVGYGYGPTFRAVRAVWRRGSGNTTETFAEIALPEDARAEAGRFGIHPALLDAALHSTMVSAAADTESYGDEVRLPFAWNGLRLHAAGASVLRVRVAKPERDSLSLEAVDESGGLVVTLDSLVGRPVSNDQLTTAAG |  | binds
